In PMC12316515, “PIF4‐dependent 2‐hydroxymelatonin and 3‐hydroxymelatonin biosynthesis is involved in skotomorphogenic seedling growth in Arabidopsis thaliana”:

T1: Trx-PIF4 (Arabidopsis thaliana, UniProt Q8W2F3 1-430)
T1 sequence: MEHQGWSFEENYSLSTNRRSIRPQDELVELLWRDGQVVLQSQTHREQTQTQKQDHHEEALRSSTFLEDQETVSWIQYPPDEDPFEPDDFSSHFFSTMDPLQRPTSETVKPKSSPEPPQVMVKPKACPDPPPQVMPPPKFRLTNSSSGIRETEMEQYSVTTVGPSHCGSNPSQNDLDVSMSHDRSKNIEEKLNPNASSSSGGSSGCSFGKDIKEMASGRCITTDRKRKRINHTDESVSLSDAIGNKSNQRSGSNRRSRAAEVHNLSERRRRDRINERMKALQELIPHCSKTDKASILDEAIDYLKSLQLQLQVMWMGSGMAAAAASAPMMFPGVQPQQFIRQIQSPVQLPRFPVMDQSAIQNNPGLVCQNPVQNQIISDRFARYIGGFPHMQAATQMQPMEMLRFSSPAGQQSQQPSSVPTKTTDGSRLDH


Experiments:
purified protein = substrate: COc1ccc2[nH]cc(CCNC(C)=O)c2c1; assay: purified protein; details: pH 8.0, GST fusion protein, substrate not named beside the value, implied by M2H activity
Trx-PIF4 [1] = target: T1, Trx-PIF4; assay: EMSA; LightShift Chemiluminescent EMSA Kit, 100 fmol biotin-labeled DNA, 20 min at room temperature, native 6% PAGE in 0.5x TBE; binding buffer, salt and pH not stated; details: protein: recombinant; tags: N-terminal Trx (pET32b); label: 3' biotin
Trx-PIF4 [2] = target: T1, Trx-PIF4; assay: EMSA; greatest binding of the probes; LightShift Chemiluminescent EMSA Kit, 100 fmol biotin-labeled DNA, 20 min at room temperature, native 6% PAGE in 0.5x TBE; binding buffer, salt and pH not stated; details: protein: recombinant; tags: N-terminal Trx (pET32b); label: 3' biotin

| Binder | binding result (Trx-PIF4 [1]) | further results |
| --- | --- | --- |
| AtM2H (Arabidopsis melatonin 2-hydroxylase) (Arabidopsis thaliana) (protein) MEETNKSVVNDYFTSAMELTESGDPHVPTRYILPPSQRPMLGPSIGTSTINLPVIDLSFLHDPLLRLCVIHEIELACKGFGFFQVINHGISSAVVKDAQDSATRFFDLPADEKMHLVSDNFQEPVRYGTSINHSTDRVHYWRDFIKHYSHPLSNWINLWPSNPPCYKEKVGKYAEATHVLHKQLIEAISESLGLEKNYLQEEIEEGSQVMAVNCYPACPEPEIALGMPPHSDYGSLTILLQSSEGLQIKDCNNNWVCVPYIEGALIVQLGDQVEVMSNGIYKSVVHRVTVNKDYKRLSFASLHSLPMHKKISPATQLVNENKPAAYGEFSFNDFLDYISRNDITQKRFIDTLRKKNL | – | Km (purified protein): 355 µM |
| M2H E2 (dsDNA) DNA 1: GATGACTATTTTCATTTGATAATATATCCA DNA 2: TGGATATATTATCAAATGAAAATAGTCATC | binds | – |
| M3H E1/E2 (dsDNA) DNA 1: CATACCATATGTCTTTTATCATCTGTCCTT DNA 2: AAGGACAGATGATAAAAGACATATGGTATG | binds | – |
| M3H E3 (dsDNA) DNA 1: CAATGTTAAAGACACATGAACGTTGGGATA DNA 2: TATCCCAACGTTCATGTGTCTTTAACATTG | – | binding result (Trx-PIF4 [2]): binds |
